The record followed here is patent US8095350.

The target in this experiment is T1, Human APOBEC-2 (APO2) containing residues 41-224 (human), Q9Y235.
T1 chain: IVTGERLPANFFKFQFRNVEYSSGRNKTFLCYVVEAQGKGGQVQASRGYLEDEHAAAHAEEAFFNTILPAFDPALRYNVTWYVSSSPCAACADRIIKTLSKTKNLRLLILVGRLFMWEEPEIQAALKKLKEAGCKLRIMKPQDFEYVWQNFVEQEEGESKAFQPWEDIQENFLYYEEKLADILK
The experiment is described as follows: X-ray crystal structure, tetramer interface. As to conditions: remark: other sources report otherwise.

B1: Human APOBEC-2 (APO2) containing residues 41-224, Q9Y235 41-224 (enzyme, UniProt Q9Y235 41-224, looked up)
chain: T1 chain
In turn, B1 came in with a total buried area within the tetramer interface of 1740 Å^2.
